The target in experiment [1] is T1, human α4β7 integrin on cells (human, UniProt P13612 34-1032; P26010 20-798).
T1 construct: whole, on cells; also called α4β7 cell (Hu); RPMI8866 cells
Kind of experiment: RPMI8866 cell adhesion to MAdCAM-1.

Experiment [2] deals with T1, human α4β7 integrin on cells. Kind of experiment: PBMC memory T cell adhesion.
Experiment [3] concerns the target T2, rh integrin α4β7 (R&D Systems #5397-A30) (human, UniProt P13612 34-970; P26010 20-723).
T2 construct: bought; coated on a nickel coated plate; also called immobilized α4β7; immobilized α4β7 integrin protein
Kind of experiment: competition ELISA vs MAdCAM-1. For orientation: An ELISA detects its analyte on a solid surface through an enzyme-linked reagent.

For experiment [4], the target named is T3, mouse α4β7 integrin on TK1 cells (mouse, UniProt Q00651 41-1039; P26011 20-806).
T3 construct: whole, on cells; also called α4β7 cell (Mu); Cell Adhesion α4β7 Mouse
T3 sequence (Q00651 41-1039, chain 1 of 2): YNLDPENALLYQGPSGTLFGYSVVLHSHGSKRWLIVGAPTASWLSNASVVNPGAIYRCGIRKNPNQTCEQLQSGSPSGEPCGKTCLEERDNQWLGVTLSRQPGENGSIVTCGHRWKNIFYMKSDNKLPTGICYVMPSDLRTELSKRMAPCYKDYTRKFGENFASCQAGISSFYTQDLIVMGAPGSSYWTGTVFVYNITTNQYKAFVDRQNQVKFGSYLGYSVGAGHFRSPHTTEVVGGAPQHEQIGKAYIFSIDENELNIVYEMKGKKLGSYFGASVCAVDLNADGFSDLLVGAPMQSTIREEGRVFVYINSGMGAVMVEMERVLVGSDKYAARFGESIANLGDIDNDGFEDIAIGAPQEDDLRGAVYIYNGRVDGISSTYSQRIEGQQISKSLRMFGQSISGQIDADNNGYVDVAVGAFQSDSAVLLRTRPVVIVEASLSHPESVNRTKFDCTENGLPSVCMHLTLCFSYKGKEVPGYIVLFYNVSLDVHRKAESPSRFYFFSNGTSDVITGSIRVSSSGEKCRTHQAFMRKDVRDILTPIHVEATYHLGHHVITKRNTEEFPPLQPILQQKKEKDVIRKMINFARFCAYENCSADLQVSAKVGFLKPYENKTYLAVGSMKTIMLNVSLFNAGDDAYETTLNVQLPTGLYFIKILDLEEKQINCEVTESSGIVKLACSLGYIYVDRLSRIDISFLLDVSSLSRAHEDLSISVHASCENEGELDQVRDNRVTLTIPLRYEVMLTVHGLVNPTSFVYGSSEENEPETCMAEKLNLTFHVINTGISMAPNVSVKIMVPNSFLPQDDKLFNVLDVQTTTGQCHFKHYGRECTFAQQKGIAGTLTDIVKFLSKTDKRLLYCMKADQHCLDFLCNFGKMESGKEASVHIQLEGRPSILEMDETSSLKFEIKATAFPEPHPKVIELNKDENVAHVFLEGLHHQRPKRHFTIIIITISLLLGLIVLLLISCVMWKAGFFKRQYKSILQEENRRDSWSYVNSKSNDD
T3 sequence (P26011 20-806, chain 2 of 2): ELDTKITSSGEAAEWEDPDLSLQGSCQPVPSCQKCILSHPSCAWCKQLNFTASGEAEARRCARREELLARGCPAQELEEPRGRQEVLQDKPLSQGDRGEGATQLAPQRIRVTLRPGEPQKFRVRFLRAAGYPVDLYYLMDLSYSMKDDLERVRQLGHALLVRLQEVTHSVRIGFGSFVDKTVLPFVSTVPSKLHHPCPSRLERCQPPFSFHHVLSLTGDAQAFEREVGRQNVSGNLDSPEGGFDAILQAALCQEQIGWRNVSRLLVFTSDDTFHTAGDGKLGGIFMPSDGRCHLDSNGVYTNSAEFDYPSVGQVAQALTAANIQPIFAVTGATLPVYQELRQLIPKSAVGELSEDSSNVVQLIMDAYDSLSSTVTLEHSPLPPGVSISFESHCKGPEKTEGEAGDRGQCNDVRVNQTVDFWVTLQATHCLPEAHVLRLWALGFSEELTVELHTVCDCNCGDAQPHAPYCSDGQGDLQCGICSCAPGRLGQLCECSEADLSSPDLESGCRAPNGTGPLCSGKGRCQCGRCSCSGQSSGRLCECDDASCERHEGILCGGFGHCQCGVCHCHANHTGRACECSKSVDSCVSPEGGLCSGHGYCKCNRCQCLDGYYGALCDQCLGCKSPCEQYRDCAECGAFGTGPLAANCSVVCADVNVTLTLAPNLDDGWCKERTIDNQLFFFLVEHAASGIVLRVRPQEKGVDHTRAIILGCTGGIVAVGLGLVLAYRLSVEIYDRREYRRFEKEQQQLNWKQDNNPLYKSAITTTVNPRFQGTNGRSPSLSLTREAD
Put plainly: TK1 cell adhesion to MAdCAM-1.

Experiment [5] deals with T4, α4β1 (R&D Systems #5668-A4) (UniProt P13612 34-970; P05556 21-728, limits assumed).
T4 construct: bought; also called soluble α4β1
Put plainly: competition ELISA vs VCAM-1.

For experiment [6], the target named is T5, human α4β1 integrin on cells (human, UniProt P13612 34-1032; P05556 21-798).
T5 construct: whole, on cells; also called α4β1 cell; Jurkat cells
Put plainly: Jurkat cell adhesion to VCAM-1.

Experiment [7] concerns the target human α4β1 integrin on cells (human) (UniProt P13612). Kind of experiment: Jurkat cell adhesion to VCAM-1.
The target of experiment [8] is T4, α4β1 (R&D Systems #5668-A4). Kind of experiment: competition ELISA vs VCAM-1. This is another data set of the same source.
The target of experiment [9] is T1, human α4β7 integrin on cells. Put plainly: RPMI8866 cell adhesion to MAdCAM-1. This is another data set of the same source.
In experiment [10] the target is T5, human α4β1 integrin on cells. Kind of experiment: Jurkat cell adhesion to VCAM-1. This is another data set of the same source.
In experiment [11] the target is T3, mouse α4β7 integrin on TK1 cells. Put plainly: TK1 cell adhesion to MAdCAM-1. This is another data set of the same source.
The target of experiment [12] is T2, rh integrin α4β7 (R&D Systems #5397-A30). Put plainly: competition ELISA vs MAdCAM-1. The source holds these as a separate data set.
Experiment [13] has as its target mouse α4β7 integrin on TK1 cells (mouse) (UniProt Q00651). Put plainly: TK1 cell adhesion to MAdCAM-1.
Experiment [14] addresses α4β1 (R&D Systems #5668-A4) (UniProt P13612). Put plainly: competition ELISA vs VCAM-1.
The target of experiment [15] is human α4β7 integrin on cells (human) (UniProt P13612). Put plainly: RPMI8866 cell adhesion to MAdCAM-1.
For experiment [16], the target named is rh integrin α4β7 (R&D Systems #5397-A30) (human) (UniProt P13612). Kind of experiment: competition ELISA vs MAdCAM-1.
For experiment [17], the target named is human α4β7 integrin on cells (human) (UniProt P13612). Put plainly: PBMC memory T cell adhesion.
Experiment [18] has as its target T1, human α4β7 integrin on cells. Kind of experiment: PBMC memory T cell adhesion. This is another data set of the same source.
The target of experiment [19] is human α4β7 integrin on cells (human) (UniProt P13612). Put plainly: FACS, human whole blood, CD19+ B cells. On the technique in general: A flow cytometer gives signals particle by particle.
Experiment [20] has the same target. Put plainly: FACS, human whole blood, CD4 memory T cells.
For experiment [21] the target is unchanged. Put plainly: FACS, human whole blood, Monocytes.
Experiment [22] has the same target. Put plainly: FACS, human whole blood, CD8 naïve T cells.
For experiment [23] the target is unchanged. Put plainly: FACS, human whole blood, Neutrophils.
Experiment [24] shares this target. Kind of experiment: FACS, human whole blood, Eosinophils.
For experiment [25] the target is unchanged. Kind of experiment: FACS, human whole blood, CD8 memory T cells.
Experiment [26] has as its target soluble α4β7 integrin (UniProt P13612). Put plainly: SPR, binder on streptavidin chip, soluble α4β7. Background: In SPR one partner is held on a chip, and binding of the other changes the refractive index at the surface.
Experiment [27] deals with human α4β7 integrin on cells (human) (UniProt P13612). Kind of experiment: FACS, human whole blood, Basophils.
The target is the same in experiment [28]. Kind of experiment: FACS, human whole blood, NK cells CD16+ 56+.
The target is the same in experiment [29]. Put plainly: FACS, human whole blood, CD4 naïve T cells.
The target in experiment [30] is T6, soluble α4β7 integrin (UniProt P13612 34-970; P26010 20-723, limits assumed).
T6 construct: analyte of the SPR experiment
Put plainly: SPR, binder on streptavidin chip, soluble α4β7.

Like-named read-outs stand apart in the source and are kept apart here. Bridge positions count the residues as written; N and C are the ends. Square brackets hold non-standard residues; d marks the D form. 2Nal = N[C@@H](Cc1ccc2ccccc2c1)C(=O)O; NMeR = CN[C@@H](CCCNC(=N)N)C(=O)O; Pen = CC(C)(S)[C@H](N)C(=O)O

The IC50 is the concentration needed to halve the response being measured. Low readings indicate greater potency in that assay, high ones weaker potency in that assay. One may read the Kd as a measure of binding affinity in units of concentration. As usually defined, the koff is the rate constant with which the complex falls apart. Lower therefore signals a long-lived complex. The term kon denotes the rate constant with which the complex forms. Read a high kon as faster complex formation.

Sequence of mouse α4β7 integrin on TK1 cells (mouse) (Q00651 41-1039, chain 1 of 2): as the sequence (Q00651 41-1039, chain 1 of 2) above
Sequence of mouse α4β7 integrin on TK1 cells (mouse) (P26011 20-806, chain 2 of 2, further chain): as the sequence (P26011 20-806, chain 2 of 2) above

In the case of XRSDTLXWK ((Ac Pen N-Me-R S D T L Pen W k NH2)2 DIG; disulfide Pen-Pen, also called peptide 209) [SEQ ID NO: 209], the IC50 was 0.024 µM in experiment [1]; 0.26 µM in [2]; 0.0023 µM in experiment [3]; 0.051 µM in [4]; 0.368 µM in [5]; above 100 µM in experiment [6].
With Ac-[Pen][NMeR]SDTL[Pen][2Nal][dE][dK]-NH2 (disulfide 1-7; also: dimer (…)2 DIG, attachment not given here) [SEQ ID NO: 33], the IC50 in [7] is above 100 µM.

B1: SEQ ID NO: 67 (peptide)
peptide: Ac-[Pen][NMeR]SDTL[Pen]WE[dK]-NH2
modifications: disulfide 1-7; not fully specified (residue 10); printed as (Ac Pen N-Me-R S D T L Pen W E k NH2)2 DIG, disulfide Pen-Pen; also: homodimer via DIG linker
notes: also called Peptide Z
As for B1, the IC50 in experiment [8] was above 0.1 µM; in experiment [9] it was at most 0.01 µM; in experiment [10], above 100 µM; in [11], at most 0.01 µM; in experiment [12], at most 0.01 µM.

B2: SEQ ID NO: 210 (peptide)
peptide: Ac-[Pen][NMeR]SDTL[Pen][2Nal]E[dK]-NH2
modifications: disulfide 1-7
SMILES: CC(=O)N[C@@H]1C(=O)N(C)[C@@H](CCCNC(=N)N)C(=O)N[C@@H](CO)C(=O)N[C@@H](CC(=O)O)C(=O)N[C@@H]([C@@H](C)O)C(=O)N[C@@H](CC(C)C)C(=O)N[C@H](C(=O)N[C@@H](Cc2ccc3ccccc3c2)C(=O)N[C@@H](CCC(=O)O)C(=O)N[C@H](CCCCN)C(N)=O)C(C)(C)SSC1(C)C
Consider B2, for which the IC50 in experiment [7] is above 100 µM; in experiment [13], 0.06 µM; in [14], 0.2 µM; in experiment [15], 0.04 µM; in experiment [16], 0.011 µM; in experiment [17] it was 0.517 µM.

B3: SEQ ID NO: 68 (peptide)
peptide: Ac-[Pen][NMeR]SDTL[Pen]W[dE][dK]-NH2
modifications: disulfide 1-7; not fully specified (residue 10); printed as (Ac Pen N-Me-R S D T L Pen W e k NH2)2 DIG, disulfide Pen-Pen; also: homodimer via DIG linker
For B3, the IC50 is above 0.5 µM in experiment [8]; above 0.025 µM in experiment [9]; above 100 µM in [10]; at most 0.01 µM in experiment [11]; at most 0.01 µM in experiment [12]; above 0.1 µM in experiment [18].

B4: SEQ ID NO: 216 (peptide)
peptide: Ac-[Pen][NMeR]SDTL[Pen]W[dE][dK]-OH
modifications: disulfide 1-7; not fully specified (residue 10); printed as (Ac Pen N-Me-R S D T L Pen W e k OH)2 DIG, disulfide Pen-Pen; also: dimer, two subunits joined by DIG linker
notes: also called peptide 216
B4: the IC50 in experiment [1] is 0.0042 µM; in experiment [2], 0.0145 µM; in [3], 0.0028 µM; in experiment [4] it was 0.001 µM; in experiment [5], 0.247 µM; in experiment [6], above 100 µM.

B5: biotin-labeled vedolizumab antibody (antibody, INN chains, looked up, V domains shown)
VH: QVQLVQSGAEVKKPGASVKVSCKGSGYTFTSYWMHWVRQAPGQRLEWIGEIDPSESNTNYNQKFKGRVTLTVDISASTAYMELSSLRSEDTAVYYCARGGYDGWDYAIDYWGQGTLVTVSS
VL: DVVMTQSPLSLPVTPGEPASISCRSSQSLAKSYGNTYLSWYLQKPGQSPQLLIYGISNRFSGVPDRFSGSGSGTDFTLKISRVEAEDVGVYYCLQGTHQPYTFGQGTKVEIKR
modifications: biotin label
Consider B5, for which the Percent positive staining in experiment [19] was found to be 85%; in experiment [20], 22%; in experiment [21], 7%; in experiment [22] it was 53%; in experiment [23] it was 0.45%; in experiment [24], 91%. Moreover, the Percent positive staining in experiment [25] was 36%; in experiment [27] it was 86%; in experiment [28] it was 42%; in experiment [29], 55%. Further, in the experiment with soluble α4β7 integrin [26], the Half-life for dissociation was determined as 0.717 h. Moreover, the Kd with soluble α4β7 integrin [26] was 0.0595 µM. Further, the off-rate (koff) in the experiment with soluble α4β7 integrin [26] was 0.000266 s⁻¹. The molecule also gave a kon in the experiment with soluble α4β7 integrin [26] of 4470 M⁻¹ s⁻¹.

B6: Peptide Z-biotin (peptide)
peptide: Ac-[Pen][NMeR]SDTL[Pen]WE[dK]-NH2
modifications: disulfide 1-7; not fully specified (residue 10); printed as (Ac-Pen-(N-Me-Arg)-S-D-T-L-Pen-W-E-k-NH2)2-DIG; also: homodimer: two subunits joined by DIG linker, biotin label, attachment not given here
Regarding B6, in the experiment with soluble α4β7 integrin [30], the Half-life for dissociation amounted to 3.53 h, the Kd was determined as 0.0521 µM and the koff came out at 5.46e-05 s⁻¹.

B7: SEQ ID NO: 78 (peptide)
peptide: Ac-[Pen][NMeR]SDTL[Pen]WE[dK]-OH
modifications: disulfide 1-7; not fully specified (residue 10); printed as (Ac Pen N-Me-R S D T L Pen W E k OH)2 DIG, disulfide Pen-Pen; also: homodimer: two subunits linked by DIG via D-Lys10 side chain
Take B7: the IC50 was above 0.1 µM in experiment [8]; at most 0.01 µM in [9]; above 100 µM in experiment [10]; at most 0.01 µM in experiment [11]; at most 0.01 µM in [12].
With Ac-[Pen][NMeR]SDTL[Pen][2Nal]E[dK]-NH2 (disulfide 1-7; also: dimer (…)2 DIG, attachment not given here) [SEQ ID NO: 212], the IC50 was above 100 µM in experiment [7]; 0.0025 µM in experiment [13]; 0.07 µM in experiment [14]; 0.0025 µM in [15]; 0.002 µM in experiment [16].

The values are drawn from patent US20220162261A1 (published 2022).
